Data on one molecule can be found in paper doi:10.1101/2020.01.08.898304 (bioRxiv, 2020).

Assay [1] addresses T1, Jacob (recombinant protein used for ITC) (UniProt Q9EPI6 1-532).
T1 sequence (looked up): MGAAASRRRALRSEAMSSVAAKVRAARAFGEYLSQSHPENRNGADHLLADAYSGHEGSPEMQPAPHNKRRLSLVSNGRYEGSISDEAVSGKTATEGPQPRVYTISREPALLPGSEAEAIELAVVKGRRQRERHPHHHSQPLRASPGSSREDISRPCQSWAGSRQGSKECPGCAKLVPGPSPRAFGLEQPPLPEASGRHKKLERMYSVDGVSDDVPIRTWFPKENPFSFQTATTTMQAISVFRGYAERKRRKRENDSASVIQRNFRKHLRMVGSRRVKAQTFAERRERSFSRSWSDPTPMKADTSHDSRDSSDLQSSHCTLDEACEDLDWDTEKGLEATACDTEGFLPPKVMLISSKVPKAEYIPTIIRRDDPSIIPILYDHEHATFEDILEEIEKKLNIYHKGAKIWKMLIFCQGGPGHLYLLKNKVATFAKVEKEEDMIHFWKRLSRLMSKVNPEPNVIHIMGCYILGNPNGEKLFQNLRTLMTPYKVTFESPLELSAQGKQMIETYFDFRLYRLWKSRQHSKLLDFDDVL
As to the kind of experiment: ITC. (Isothermal titration calorimetry measures the heat released or taken up as one component is titrated into another.)

The target of assay [2] is T2, MBP-Jacob-45-228 (UniProt Q9EPI6 45-228).
T2 sequence (looked up): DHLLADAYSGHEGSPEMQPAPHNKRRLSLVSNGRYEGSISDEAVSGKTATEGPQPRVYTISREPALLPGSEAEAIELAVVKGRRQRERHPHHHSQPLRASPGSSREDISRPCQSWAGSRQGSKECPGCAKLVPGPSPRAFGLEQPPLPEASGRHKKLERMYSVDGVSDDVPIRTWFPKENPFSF
Kind of assay: pull-down.

Assay [3] has as its target T3, MBP-Jacob-45-228-180A (UniProt Q9EPI6 45-228, S180A).
T3 sequence (looked up): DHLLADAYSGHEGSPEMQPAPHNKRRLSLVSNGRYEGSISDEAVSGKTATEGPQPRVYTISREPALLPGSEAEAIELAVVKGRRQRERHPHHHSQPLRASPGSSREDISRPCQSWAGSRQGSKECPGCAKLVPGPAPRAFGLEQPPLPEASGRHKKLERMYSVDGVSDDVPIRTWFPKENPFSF
Kind of assay: pull-down.

Broadly, the Kd is a measure of binding affinity in units of concentration.

B1: GST-LMO4 (natural protein, UniProt P61968 1-165, looked up)
chain: MVNPGSSSQPPPVTAGSLSWKRCAGCGGKIADRFLLYAMDSYWHSRCLKCSCCQAQLGDIGTSCYTKSGMILCRNDYIRLFGNSGACSACGQSIPASELVMRAQGNVYHLKCFTCSTCRNRLVPGDRFHYINGSLFCEHDRPTALINGHLNSLQSNPLLPDQKVC
With B1, the Kd in assay [1] was determined as 370 nM. Moreover, the binding result in assay [2] and in assay [3] was “binds” each time.
